Experimental data: the RNAGym collection of RNA variant scans (doi:10.1073/pnas.2313332121)
Fewer inactive variants are shown than the library holds.

B1: TPR 5TU (parent)
chain: GGAUCUUCUCGAUCUAACAAAAAAGACAAAUCUGCCACAAAGCUUGAGAGCAUCUUCGGAUGCAGAGGCGGCAGCCUUCGGUGGCGCGAUAGCGCCAACGUUCUCAACUAUGACACGCAAAACGCGUGCUCCGUUGAAUGGAGUUUAUCAUG

Variants of: B1
Test: polymerase ribozyme fitness, log enrichment relative to wild type (log ratio); higher = more active; in vitro selection for triplet polymerase activity
Procedure, shortened: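 To select mutant libraries of each subunit of a heterodimeric triplet polymerase ribozyme, built by PCR and transcribed, each was annealed with a biotinylated primer, partner subunit and triplets, then incubated frozen at −7 °C. Extended constructs were gel-excised, captured on streptavidin beads and amplified by RT-PCR, in one round carried out in triplicate. Illumina sequencing of input and output libraries kept genotypes with ≥10 input reads and ≥1 read per output. Fitness is the base-2 logarithm of genotype enrichment relative to wild-type enrichment, from inverse-variance-weighted replicate averages.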

Variant | polymerase ribozyme fitness (log ratio)
A12G C14G A22C A37C G88C G143C | ≤ -4.2
A12G U61A C76A A106G | -3.97
A12U A28C C57U G68A G92C G126U | ≤ -4.2
A12U A23G C87U | -3.67
U13A A52G G68C G80A U82G C95G C105U C114A U145G | ≤ -4.2
A12G C38U C99U | -0.24
A12U A26C C35A U55C G59C C76A C93A U111C A138G U144A | ≤ -4.2
A12G C57G G59A C96U U127G | -3.86
A12G C63U | -0.0387
A12G C54A G86C C87U G126A | ≤ -4.2
A12U A20U C54U A73G A91U C99U U146G | ≤ -4.2
A12G U151G | -4.06
A12U U55A G59U A60G G94A | -0.00322
A12G A41U C85U U101G C105A G140U G152U | -4.09
A12U A26C C36U | -3.95
A12G C51U | 0.193
A12G G84A G143A A147G | -3.25
A12G A91G A106G | -2.04
A12G A24U U53A U82G G84A A89U | -3.13
A12C G71U C93U A97G C103U C131G G141C | ≤ -4.2
A12U C63A U78G C95U | ≤ -4.2
A12G C57U U61A G68A G70C C87U C96A G133A U148A | ≤ -4.2
A12G A40C A41G U56A U82G C99A A113C C125U | ≤ -4.2
U13A A29U U44A C72G C96U A97U | ≤ -4.2

Variant | polymerase ribozyme fitness (log ratio)
A12C G94U A150G | -2.61
A12C U15C A40U C99G | -0.411
A12G C54G C116U | -0.574
A12G G58A A91U U109G | -3.78
U13A A91G C114U A120G | -4.09
A12U G50U C72U G126A | -1.33
A12U C85A U139G | -0.992
A12C C93G A98U | -3.05
U13A A39U C54G C79U G81U G94U U139C G140U | ≤ -4.2
A12U C54U G86C | -3.04
A12G A29U U31A G67U C72A G92U A137G | ≤ -4.2
A12U C35A U44A G92C U127A C129G G143A U151C | ≤ -4.2
A12U G80U G84C A97G U134C | ≤ -4.2
A12U C18G G92C | -2.01
A12G C27U A40U A73G C87G C95A G124U G136A | ≤ -4.2
A12G A19U U45A U53A G88U | ≤ -4.2
A12U U82C G86C | ≤ -4.2
A12C U33A G48C U127G G140C | ≤ -4.2
U13A A52U A73G C85A U134G | ≤ -4.2
A12U G84U | -1.97
A12U G84C | -2.67
A12G C14G A17G C75U A91G C105U A106G A121U A137U | ≤ -4.2
A12U A49C U53A C85U C118G U151G | ≤ -4.2
A12G A37U U55G A113C | ≤ -4.2

Variant | polymerase ribozyme fitness (log ratio)
A12U C54A C95U | -1.84
A12C G86C A106U A115U U144A | ≤ -4.2
A12U C87A U90C A113G C131U | ≤ -4.2
A12U C51U | -2.53
A12U G67U G84A A110U | ≤ -4.2
A12G C36A U55G G94A G141C U148G | ≤ -4.2
A12U A39C A52G C57G | -4.2
A12G A23U C85G A150G | ≤ -4.2
A12U A19G U82C G83A A119U | -4.07
A12U C38U G83U | -0.788
A12G A19U A41U G50C C85U G133A U148C | ≤ -4.2
A12U A17G C35A U44A A47C A52U C95U G152U | ≤ -4.2
A12U C38G G50A A66C | ≤ -4.2
A12U A17G C57A A98U | -0.729
A12U A40U C85U U145C | -1.21
A12U C76G C85U C103A G126C U145G | ≤ -4.2
A12U C85G | -1.91
A12U C85A | -1.85
A12U C85U | -0.742
A12C C96U | -0.42
A12U A49C G100U U146G | ≤ -4.2
A12U C38G G59U | -0.492
A12C G34U G50U G88C A98U C125A | -4.18
A12U A17U A22C G34C U55A U56A C57U A64C C95U | ≤ -4.2

Variant | polymerase ribozyme fitness (log ratio)
A12G A22C A66U C69U G92A | ≤ -4.2
A12C U55G A97G C105U | -3.12
A12U A17U A28C C43G C103G | ≤ -4.2
A12C G62A A122U | -0.923
A12U G86A U101G | -0.714
A12C U53A G58U C99G U151C | ≤ -4.2
A12U C96U U144G | 0.0703
A12U G46C C69U | -3.08
A12C U15G U56A C75U G86U C129A G133U | ≤ -4.2
A12G A26G G94C C95A A137G | -4
A12G U53G G59A C95G A98C U146A | -1.26
A12G C14U G50A U53A C95U C99A C116U A150U | -4.15
A12G A52C C93U A98U G124A | -2
A12U C27A A52C G71C C105U | ≤ -4.2
A12C C85G A122C | -2.14
A12G U77A C96A A98G | ≤ -4.2
A12C C129G | -3.9
A12G G59A G94C | -0.564
A12C G81A G92C C99U G124C G133U | ≤ -4.2
A12G C57G G83U A115G | -2.09
A12G C14U | -0.925
A12G A98U | -0.71
A12U G42C C51U C93U C123A G124U | ≤ -4.2
A12U A37G C69G A122C G126A A150G | ≤ -4.2

Variant | polymerase ribozyme fitness (log ratio)
A12U C85A C96A | -2.97
U13A A20U U77A | ≤ -4.2
A12U C14U A21U A49G C75G C116U A121C U146G U151G | ≤ -4.2
A12U A20C G86U G100U U151A | ≤ -4.2
U13A C18G A30G G65U A91G A115C C118U U144G | ≤ -4.2
A12U A110G | -3.35
A12G A20G A60G | -0.113
A12G G83U G92U A142G | -2.93
A12G G92A U127A U139A G143A | ≤ -4.2
A12G U55A G71A G80C | ≤ -4.2
A12G A20U A23C G141U | ≤ -4.2
A12G U45G C69G A91C A115G G133A G143U | ≤ -4.2
A12U G42C U61A A106U C132U | ≤ -4.2
U13A A52G U82A | -0.721
A12C C85G | -2.59
A12U G141C | -0.54
A12U U15C U56A G92A A150G | -1.16
A12U U55G A142C | -1.46
U13A A41C A91U C96U | ≤ -4.2
A12U U15C A49C G88C C123U G143C | ≤ -4.2
A12U A23C C54U C116G A147C U151A | ≤ -4.2
A12G U15C A37G U44A U56A C69U C87U | ≤ -4.2
A12G C85A | -1.31
A12G A29U U44C G50C A91C C93G G94C C116U U144A | ≤ -4.2

Variant | polymerase ribozyme fitness (log ratio)
A12U A19C C95U C105A | -1.03
A12G A49C G74A C96U U102G G112U C125U | ≤ -4.2
A12U A16U C51A G94A U109C A113G C116A U144A | ≤ -4.2
U13A A21C A73G C85G A89U | -2.11
A12U A28U A41U U53G U56G G84A A91G C93G G140U | ≤ -4.2
A12U U31C C32U A40U C57G A73G C75A G88A G152A | ≤ -4.2
A12C C85U A142U | -1.48
A12U A41U G65C G70C C79U | ≤ -4.2
A12U G58U G83A C93A | ≤ -4.2
A12C U61G C75G C96U C131U G140U G141A | ≤ -4.2
A12U C35G A60C U61A C76A G124U | ≤ -4.2
A12G A20U A29U U53G A66C | -4.16
A12U U55G A60U G83C A137U G141U | ≤ -4.2
A12C U15A U56A | -0.709
A12U C35G G46A C57G A60C G92U C108G G143A A147G | ≤ -4.2
A12C G59A G84A C118U A121G A122C G126U | -3.86
U13A A22U U53A G62C A64U U90A A91C C103A A106G C108U G126C | ≤ -4.2
A12U G50A C85A G88A A121G | ≤ -4.2
A12U U61G C93U G94A U144G | -2.83
A12U A16C A28G C38U A41U G86A A150G | ≤ -4.2
A12G A60G C93U | -0.294
A12U C54U U134A U145G | -3.56
A12G U45G A49U A60G U61G A107U U127G | ≤ -4.2
A12U U102G | -3.28

Variant | polymerase ribozyme fitness (log ratio)
A12U G81C G84A A115U | ≤ -4.2
A12U U56A C93U A147G | -1.6
A12C C87U C114U U139G | -3.08
A12G C75G C93U C108U A110C | ≤ -4.2
A12U A52C G84A A98G | -2.65
U13A A30U U33G G46A G86A A91U A119G | ≤ -4.2
A12G U145A | 1.33
A12G C95U | 0.599
A12G G25C A122G G136A | -3.16
A12G U45A A52U C93A C118A A120U U145G | ≤ -4.2
A12G G83A G126U U134C U148G | ≤ -4.2
A12U G143U | -3.14
U13A A28U C36U G81C | ≤ -4.2
A12C G58C C96G | -1.07
A12G U53A G68A A107U | ≤ -4.2
A12G G74C | -3.9
A12G U13A A19C G92C C99U G124C U148G G152U | ≤ -4.2
A12G A23C G25A A41G G94C C96U C116U G143C | ≤ -4.2
A12G C14G G92C | -2.86
A12U U82G | -1.49
A12G | 0.116
A12U | -0.161
A12G A23U C35U C76A C93U A97U C116A | -3.12
